{"source": "paper PMC7643339", "key": {"[1]": {"biological_target": "mouse TLR9 ectodomain, uncleaved (without proteolytic activation) (mouse) (UniProt Q9EQU3)", "assay": "SEC; Superdex 200 10/300, 10 mM Tris pH 7.4, 0.15 M NaCl, no oligonucleotide; last step of the purification"}, "mTLR9-ECD, GluC-cleaved [2]": {"biological_target": "T1, mTLR9-ECD, GluC-cleaved (mouse, UniProt Q9EQU3 26-818)", "T1 sequence": "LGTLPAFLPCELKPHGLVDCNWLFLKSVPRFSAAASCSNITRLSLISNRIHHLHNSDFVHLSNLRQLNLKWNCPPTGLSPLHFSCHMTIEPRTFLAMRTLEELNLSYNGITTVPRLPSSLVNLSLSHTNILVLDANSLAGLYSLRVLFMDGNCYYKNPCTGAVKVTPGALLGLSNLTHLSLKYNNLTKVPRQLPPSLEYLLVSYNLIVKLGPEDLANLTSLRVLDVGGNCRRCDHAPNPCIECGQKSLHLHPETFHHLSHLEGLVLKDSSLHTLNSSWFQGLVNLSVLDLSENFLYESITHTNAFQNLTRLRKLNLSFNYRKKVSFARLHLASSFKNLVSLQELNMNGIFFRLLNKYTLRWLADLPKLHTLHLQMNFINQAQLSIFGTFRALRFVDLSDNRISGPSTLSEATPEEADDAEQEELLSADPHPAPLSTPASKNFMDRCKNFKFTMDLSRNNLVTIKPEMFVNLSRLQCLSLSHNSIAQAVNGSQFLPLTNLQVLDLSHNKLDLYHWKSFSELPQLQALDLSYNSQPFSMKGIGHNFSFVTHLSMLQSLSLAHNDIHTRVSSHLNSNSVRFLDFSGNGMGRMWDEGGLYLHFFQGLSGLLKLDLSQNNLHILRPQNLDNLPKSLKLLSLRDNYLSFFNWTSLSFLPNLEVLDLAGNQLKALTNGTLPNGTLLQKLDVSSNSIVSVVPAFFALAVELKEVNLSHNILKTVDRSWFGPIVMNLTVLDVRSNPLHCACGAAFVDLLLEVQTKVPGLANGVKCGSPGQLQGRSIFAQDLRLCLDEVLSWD", "assay": "competition; Cheng-Prusoff; vs Alexa 488 1668-12mer; Anisotropy: 2 or 5 nM Alexa 488 oligo, protein to 100 nM; competition in 10 mM MES pH 6.0, 0.15 M NaCl, room temperature (direct titration buffer not separately)"}, "mTLR9-ECD, GluC-cleaved [3]": {"biological_target": "T1, mTLR9-ECD, GluC-cleaved", "assay": "competition; vs Alexa 488 1668-12mer; Anisotropy: 2 or 5 nM Alexa 488 oligo, protein to 100 nM; competition in 10 mM MES pH 6.0, 0.15 M NaCl, room temperature (direct titration buffer not separately)"}, "[4]": {"biological_target": "T2, mTLR9-ECD W96A/Y132A (site A mutant) (mouse, UniProt Q9EQU3 26-818, W96A;Y132A)", "T2 sequence": "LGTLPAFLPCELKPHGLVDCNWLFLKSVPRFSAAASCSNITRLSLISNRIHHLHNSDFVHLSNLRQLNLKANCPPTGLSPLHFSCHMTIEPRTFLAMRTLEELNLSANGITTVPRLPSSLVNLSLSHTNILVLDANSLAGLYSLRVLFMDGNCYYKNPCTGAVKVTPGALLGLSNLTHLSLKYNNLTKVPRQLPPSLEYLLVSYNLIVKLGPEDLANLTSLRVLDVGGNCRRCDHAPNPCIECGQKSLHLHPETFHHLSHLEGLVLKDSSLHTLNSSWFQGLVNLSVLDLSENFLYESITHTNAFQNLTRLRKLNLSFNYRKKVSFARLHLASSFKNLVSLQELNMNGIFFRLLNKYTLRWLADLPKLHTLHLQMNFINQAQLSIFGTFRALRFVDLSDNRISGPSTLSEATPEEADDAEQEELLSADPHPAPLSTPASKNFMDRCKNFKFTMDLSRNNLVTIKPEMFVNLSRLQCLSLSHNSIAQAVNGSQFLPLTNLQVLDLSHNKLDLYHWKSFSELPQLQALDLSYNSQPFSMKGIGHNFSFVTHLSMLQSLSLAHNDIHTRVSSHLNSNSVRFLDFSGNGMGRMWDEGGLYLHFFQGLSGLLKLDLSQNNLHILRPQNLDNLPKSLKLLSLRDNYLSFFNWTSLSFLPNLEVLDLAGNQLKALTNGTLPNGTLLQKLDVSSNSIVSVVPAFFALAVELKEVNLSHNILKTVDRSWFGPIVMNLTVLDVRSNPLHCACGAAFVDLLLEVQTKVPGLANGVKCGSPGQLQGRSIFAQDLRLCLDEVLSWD", "assay": "mass photometry; a fraction dimerizes with ligand; Anisotropy: 2 or 5 nM Alexa 488 oligo, protein to 100 nM; competition in 10 mM MES pH 6.0, 0.15 M NaCl, room temperature (direct titration buffer not separately)"}, "mTLR9-ECD, GluC-cleaved [5]": {"biological_target": "T1, mTLR9-ECD, GluC-cleaved", "assay": "fluorescence anisotropy; apparent, 1:1 fit; SI text gives 9.2 nM; Anisotropy: 2 or 5 nM Alexa 488 oligo, protein to 100 nM; competition in 10 mM MES pH 6.0, 0.15 M NaCl, room temperature (direct titration buffer not separately)"}, "[6]": {"biological_target": "T3, mTLR9-ECD E617A/H642A (site B mutant) (mouse, UniProt Q9EQU3 26-818, E617A;H642A)", "T3 sequence": "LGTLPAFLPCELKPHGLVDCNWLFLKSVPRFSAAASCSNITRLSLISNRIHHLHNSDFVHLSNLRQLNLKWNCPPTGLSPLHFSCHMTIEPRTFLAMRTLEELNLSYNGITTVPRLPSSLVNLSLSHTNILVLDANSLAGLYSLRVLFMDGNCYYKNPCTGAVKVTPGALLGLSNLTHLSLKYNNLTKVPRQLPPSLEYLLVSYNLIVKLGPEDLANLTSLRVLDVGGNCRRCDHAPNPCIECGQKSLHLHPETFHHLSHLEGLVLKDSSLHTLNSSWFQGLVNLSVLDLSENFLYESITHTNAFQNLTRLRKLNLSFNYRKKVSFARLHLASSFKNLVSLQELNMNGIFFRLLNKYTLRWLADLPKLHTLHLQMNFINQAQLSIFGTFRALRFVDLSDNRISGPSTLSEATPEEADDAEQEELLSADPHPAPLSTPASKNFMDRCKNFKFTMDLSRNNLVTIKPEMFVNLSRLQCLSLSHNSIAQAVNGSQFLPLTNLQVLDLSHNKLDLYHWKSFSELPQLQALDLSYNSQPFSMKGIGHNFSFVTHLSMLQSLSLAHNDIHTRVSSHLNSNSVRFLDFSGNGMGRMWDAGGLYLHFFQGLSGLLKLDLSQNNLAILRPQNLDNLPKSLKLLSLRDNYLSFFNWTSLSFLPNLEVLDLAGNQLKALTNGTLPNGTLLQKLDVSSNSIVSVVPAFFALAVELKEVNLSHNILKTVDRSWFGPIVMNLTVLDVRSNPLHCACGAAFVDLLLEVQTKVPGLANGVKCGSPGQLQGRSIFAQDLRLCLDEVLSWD", "assay": "fluorescence anisotropy; 1:1 fit; reports site A (KA); Anisotropy: 2 or 5 nM Alexa 488 oligo, protein to 100 nM; competition in 10 mM MES pH 6.0, 0.15 M NaCl, room temperature (direct titration buffer not separately)"}, "mTLR9-ECD, uncleaved": {"biological_target": "T4, mTLR9-ECD, uncleaved (mouse, UniProt Q9EQU3 26-818)", "T4 sequence": "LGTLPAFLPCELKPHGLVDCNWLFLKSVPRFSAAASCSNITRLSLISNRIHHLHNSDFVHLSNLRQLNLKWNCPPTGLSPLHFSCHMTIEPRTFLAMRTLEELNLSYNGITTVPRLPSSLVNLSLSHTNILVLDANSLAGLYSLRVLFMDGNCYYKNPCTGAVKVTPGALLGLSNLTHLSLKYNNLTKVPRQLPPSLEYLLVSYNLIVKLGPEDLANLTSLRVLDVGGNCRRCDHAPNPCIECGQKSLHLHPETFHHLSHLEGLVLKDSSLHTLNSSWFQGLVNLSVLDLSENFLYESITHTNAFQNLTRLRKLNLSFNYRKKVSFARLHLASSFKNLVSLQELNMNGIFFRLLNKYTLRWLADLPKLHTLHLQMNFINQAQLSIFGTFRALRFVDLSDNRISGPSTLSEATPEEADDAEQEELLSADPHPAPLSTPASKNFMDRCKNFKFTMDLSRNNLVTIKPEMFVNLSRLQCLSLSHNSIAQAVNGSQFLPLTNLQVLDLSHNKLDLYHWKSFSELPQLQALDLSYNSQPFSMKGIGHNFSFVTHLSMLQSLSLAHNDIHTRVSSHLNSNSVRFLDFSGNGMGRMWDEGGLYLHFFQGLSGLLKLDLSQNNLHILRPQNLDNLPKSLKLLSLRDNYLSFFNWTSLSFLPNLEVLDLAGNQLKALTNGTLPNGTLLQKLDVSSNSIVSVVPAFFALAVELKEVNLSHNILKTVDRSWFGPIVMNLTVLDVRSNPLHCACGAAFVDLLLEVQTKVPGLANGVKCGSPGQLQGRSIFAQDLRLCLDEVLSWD", "assay": "fluorescence anisotropy; 1:1 fit; uncleaved; Anisotropy: 2 or 5 nM Alexa 488 oligo, protein to 100 nM; competition in 10 mM MES pH 6.0, 0.15 M NaCl, room temperature (direct titration buffer not separately)"}, "mTLR9-ECD, GluC-cleaved [7]": {"biological_target": "T1, mTLR9-ECD, GluC-cleaved", "assay": "fluorescence anisotropy; apparent, 1:1 fit; Anisotropy: 2 or 5 nM Alexa 488 oligo, protein to 100 nM; competition in 10 mM MES pH 6.0, 0.15 M NaCl, room temperature (direct titration buffer not separately)"}, "mTLR9-ECD, GluC-cleaved [8]": {"biological_target": "T1, mTLR9-ECD, GluC-cleaved", "assay": "fluorescence anisotropy; 1:1 fit; Anisotropy: 2 or 5 nM Alexa 488 oligo, protein to 100 nM; competition in 10 mM MES pH 6.0, 0.15 M NaCl, room temperature (direct titration buffer not separately)"}}}
{"molecule": "mouse TLR9 ectodomain, uncleaved (without proteolytic activation) (from UniProt Q9EQU3 26-818) (domain or fragment)", "values": [{"measurement": "stoichiometry N", "setting": "[1]", "result": 2}]}
{"molecule": "CATGACGTTCCT (ssDNA)", "note": "[1668-12mer, unlabeled]", "values": [{"measurement": "Ki", "setting": "mTLR9-ECD, GluC-cleaved [2]", "result": 8, "unit": "nM"}, {"measurement": "IC50", "setting": "mTLR9-ECD, GluC-cleaved [3]", "result": "~10", "unit": "nM"}]}
{"molecule": "TCCATGACGTTCCTGATGCT (ssDNA)", "note": "[1668, unlabeled]", "values": [{"measurement": "binding result", "setting": "[4]", "result": "binds"}]}
{"molecule": "CATGACGTTCCT (ssDNA)", "note": "[1668-12mer (Alexa 488)]", "values": [{"measurement": "Kd", "setting": "mTLR9-ECD, GluC-cleaved [5]", "result": 11, "unit": "nM"}]}
{"molecule": "TCCATGACGTTCCTGATGCT (ssDNA)", "note": "[1668 (Alexa 488)]", "values": [{"measurement": "Kd", "setting": "[6]", "result": 40, "unit": "nM"}, {"measurement": "Kd", "setting": "mTLR9-ECD, uncleaved", "result": 12, "unit": "nM"}, {"measurement": "Kd", "setting": "mTLR9-ECD, GluC-cleaved [7]", "result": 2.8, "unit": "nM"}]}
{"molecule": "CCTGGATGGGAA (ssDNA)", "note": "[4084 (printed 4048 in Table 1; Alexa 488)]", "values": [{"measurement": "Kd", "setting": "mTLR9-ECD, GluC-cleaved [8]", "result": 29, "unit": "nM"}]}
{"molecule": "TCCTTTCGTTTTTTTTTTTTTTT (ssDNA)", "note": "[minM (Alexa 488)]", "values": [{"measurement": "Kd", "setting": "mTLR9-ECD, GluC-cleaved [7]", "result": 3.2, "unit": "nM"}]}
